Numbered stars: 1 amine (or outer) side, 2 acyl side, 3 side chain; on linkers, the order of the positions; unused ones are H or OH. Bridge positions count the residues as written; N and C are the ends. Side chains are listed from the residue outwards. Ends that are not written are not given here. * marks the point of attachment. C20 diacid = O=C(O)CCCCCCCCCCCCCCCCCCC(=O)*; γGlu = O=C(O)[C@H](CCC(=O)[*:2])N[*:1]; AEEA = NCCOCCOCC(=O)O
T1: human calcitonin receptor (human, UniProt P30988 25-474)
T1 sequence (looked up): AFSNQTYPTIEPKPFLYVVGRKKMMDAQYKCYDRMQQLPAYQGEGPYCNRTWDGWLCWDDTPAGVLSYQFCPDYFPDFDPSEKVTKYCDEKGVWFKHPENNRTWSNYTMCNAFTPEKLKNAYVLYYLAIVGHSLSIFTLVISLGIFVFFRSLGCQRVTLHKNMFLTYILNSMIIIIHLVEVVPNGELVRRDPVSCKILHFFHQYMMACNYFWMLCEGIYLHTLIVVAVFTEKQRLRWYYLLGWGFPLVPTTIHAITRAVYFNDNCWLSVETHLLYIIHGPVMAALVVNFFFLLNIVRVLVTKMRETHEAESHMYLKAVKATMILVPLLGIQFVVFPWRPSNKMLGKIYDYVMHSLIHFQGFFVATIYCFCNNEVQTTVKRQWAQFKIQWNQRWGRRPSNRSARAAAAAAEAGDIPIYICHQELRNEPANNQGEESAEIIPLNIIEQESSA

T2: human calcitonin receptor (human, UniProt P30988 25-474)
T2 construct: whole, on cells; Used as membranes prepared from the transfected cells (Assay VII); also called hCTR; hCT
T2 sequence (looked up): T1 sequence (looked up)

B1: N^ε-[2-[2-[2-[[(4S)-4-carboxy-4-(19-carboxynonadecanoylamino)butanoyl]amino]ethoxy]ethoxy]acetyl]Lys[Arg1,Arg17,Pro21,Pro27,His35]-h-amylin (peptide)
peptide: K([AEEA-γGlu-C20 diacid])RCNTATCATQRLANFLRHSSPNFGAIPSSTNVGSHTY-NH2
modifications: disulfide 3-8; N-terminus assumed
SMILES: CC[C@H](C)[C@H](NC(=O)[C@H](C)NC(=O)CNC(=O)[C@H](Cc1ccccc1)NC(=O)[C@H](CC(N)=O)NC(=O)[C@@H]1CCCN1C(=O)[C@H](CO)NC(=O)[C@H](CO)NC(=O)[C@H](Cc1c[nH]cn1)NC(=O)[C@H](CCCNC(=N)N)NC(=O)[C@H](CC(C)C)NC(=O)[C@H](Cc1ccccc1)NC(=O)[C@H](CC(N)=O)NC(=O)[C@H](C)NC(=O)[C@H](CC(C)C)NC(=O)[C@H](CCCNC(=N)N)NC(=O)[C@H](CCC(N)=O)NC(=O)[C@@H](NC(=O)[C@H](C)NC(=O)[C@@H]1CSSC[C@H](NC(=O)[C@H](CCCNC(=N)N)NC(=O)[C@@H](N)CCCCNC(=O)COCCOCCNC(=O)CC[C@H](NC(=O)CCCCCCCCCCCCCCCCCCC(=O)O)C(=O)O)C(=O)N[C@@H](CC(N)=O)C(=O)N[C@@H]([C@@H](C)O)C(=O)N[C@@H](C)C(=O)N[C@@H]([C@@H](C)O)C(=O)N1)[C@@H](C)O)C(=O)N1CCC[C@H]1C(=O)N[C@@H](CO)C(=O)N[C@@H](CO)C(=O)N[C@H](C(=O)N[C@@H](CC(N)=O)C(=O)N[C@H](C(=O)NCC(=O)N[C@@H](CO)C(=O)N[C@@H](Cc1c[nH]cn1)C(=O)N[C@H](C(=O)N[C@@H](Cc1ccc(O)cc1)C(N)=O)[C@@H](C)O)C(C)C)[C@@H](C)O
notes: analogue of human amylin, extended by Lys at the N-terminus; also called compound 45
B2: N^ε1-[(4S)-4-carboxy-4-(19-carboxynonadecanoylamino)butanoyl]-[Arg17,Pro21,Pro27]-h-amylin (peptide)
peptide: K([γGlu-C20 diacid])CNTATCATQRLANFLRHSSPNFGAIPSSTNVGSNTY-NH2
modifications: disulfide 2-7; N-terminus assumed
SMILES: CC[C@H](C)[C@H](NC(=O)[C@H](C)NC(=O)CNC(=O)[C@H](Cc1ccccc1)NC(=O)[C@H](CC(N)=O)NC(=O)[C@@H]1CCCN1C(=O)[C@H](CO)NC(=O)[C@H](CO)NC(=O)[C@H](Cc1c[nH]cn1)NC(=O)[C@H](CCCNC(=N)N)NC(=O)[C@H](CC(C)C)NC(=O)[C@H](Cc1ccccc1)NC(=O)[C@H](CC(N)=O)NC(=O)[C@H](C)NC(=O)[C@H](CC(C)C)NC(=O)[C@H](CCCNC(=N)N)NC(=O)[C@H](CCC(N)=O)NC(=O)[C@@H](NC(=O)[C@H](C)NC(=O)[C@@H]1CSSC[C@H](NC(=O)[C@@H](N)CCCCNC(=O)CC[C@H](NC(=O)CCCCCCCCCCCCCCCCCCC(=O)O)C(=O)O)C(=O)N[C@@H](CC(N)=O)C(=O)N[C@@H]([C@@H](C)O)C(=O)N[C@@H](C)C(=O)N[C@@H]([C@@H](C)O)C(=O)N1)[C@@H](C)O)C(=O)N1CCC[C@H]1C(=O)N[C@@H](CO)C(=O)N[C@@H](CO)C(=O)N[C@H](C(=O)N[C@@H](CC(N)=O)C(=O)N[C@H](C(=O)NCC(=O)N[C@@H](CO)C(=O)N[C@@H](CC(N)=O)C(=O)N[C@H](C(=O)N[C@@H](Cc1ccc(O)cc1)C(N)=O)[C@@H](C)O)C(C)C)[C@@H](C)O
notes: analogue of human amylin; also called compound 48
B3: N^α1-[(4S)-4-carboxy-4-(19-carboxynonadecanoylamino)butanoyl]-[Glu14,Arg17,Pro21,Pro27]-h-amylin (peptide)
peptide: KCNTATCATQRLAEFLRHSSPNFGAIPSSTNVGSNTY
modifications: C20 diacid-gGlu acylated on the alpha amino group of the N-terminal residue (Lys 1); disulfide Cys2-Cys7; C-terminal amide
notes: Derivative of human amylin; also called compound 9
B4: N^α1-[(4S)-4-carboxy-4-[[(4S)-4-carboxy-4-(19-carboxynonadecanoylamino)butanoyl]amino]butanoyl]-[Glu14,Arg17,Pro21,Pro27,Pro37]-h-amylin (peptide)
peptide: {C20 diacid-γGlu-γGlu}-KCNTATCATQRLAEFLRHSSPNFGAIPSSTNVGSNTP-NH2
modifications: disulfide 2-7
SMILES: CC[C@H](C)[C@H](NC(=O)[C@H](C)NC(=O)CNC(=O)[C@H](Cc1ccccc1)NC(=O)[C@H](CC(N)=O)NC(=O)[C@@H]1CCCN1C(=O)[C@H](CO)NC(=O)[C@H](CO)NC(=O)[C@H](Cc1c[nH]cn1)NC(=O)[C@H](CCCNC(=N)N)NC(=O)[C@H](CC(C)C)NC(=O)[C@H](Cc1ccccc1)NC(=O)[C@H](CCC(=O)O)NC(=O)[C@H](C)NC(=O)[C@H](CC(C)C)NC(=O)[C@H](CCCNC(=N)N)NC(=O)[C@H](CCC(N)=O)NC(=O)[C@@H](NC(=O)[C@H](C)NC(=O)[C@@H]1CSSC[C@H](NC(=O)[C@H](CCCCN)NC(=O)CC[C@H](NC(=O)CC[C@H](NC(=O)CCCCCCCCCCCCCCCCCCC(=O)O)C(=O)O)C(=O)O)C(=O)N[C@@H](CC(N)=O)C(=O)N[C@@H]([C@@H](C)O)C(=O)N[C@@H](C)C(=O)N[C@@H]([C@@H](C)O)C(=O)N1)[C@@H](C)O)C(=O)N1CCC[C@H]1C(=O)N[C@@H](CO)C(=O)N[C@@H](CO)C(=O)N[C@H](C(=O)N[C@@H](CC(N)=O)C(=O)N[C@H](C(=O)NCC(=O)N[C@@H](CO)C(=O)N[C@@H](CC(N)=O)C(=O)N[C@H](C(=O)N1CCC[C@H]1C(N)=O)[C@@H](C)O)C(C)C)[C@@H](C)O
notes: Derivative of human amylin; also called compound 14
B5: N^ε1-[(4S)-4-carboxy-4-[[(4S)-4-carboxy-4-(19-carboxynonadecanoylamino)butanoyl]amino]butanoyl]-[Glu14,Arg17,Pro21,Pro27,Pro37]-h-amylin (peptide)
peptide: K([γGlu-γGlu-C20 diacid])CNTATCATQRLAEFLRHSSPNFGAIPSSTNVGSNTP-NH2
modifications: disulfide 2-7 (inferred)
notes: Derivative of human amylin; also called compound 13
B6: N^α1-[(4S)-4-carboxy-4-(19-carboxynonadecanoylamino)butanoyl]-[Asp14,Arg17,Pro21,Pro27,Pro37]-h-amylin (peptide)
peptide: {C20 diacid-γGlu}-KCNTATCATQRLADFLRHSSPNFGAIPSSTNVGSNTP-NH2
modifications: disulfide 2-7
SMILES: CC[C@H](C)[C@H](NC(=O)[C@H](C)NC(=O)CNC(=O)[C@H](Cc1ccccc1)NC(=O)[C@H](CC(N)=O)NC(=O)[C@@H]1CCCN1C(=O)[C@H](CO)NC(=O)[C@H](CO)NC(=O)[C@H](Cc1c[nH]cn1)NC(=O)[C@H](CCCNC(=N)N)NC(=O)[C@H](CC(C)C)NC(=O)[C@H](Cc1ccccc1)NC(=O)[C@H](CC(=O)O)NC(=O)[C@H](C)NC(=O)[C@H](CC(C)C)NC(=O)[C@H](CCCNC(=N)N)NC(=O)[C@H](CCC(N)=O)NC(=O)[C@@H](NC(=O)[C@H](C)NC(=O)[C@@H]1CSSC[C@H](NC(=O)[C@H](CCCCN)NC(=O)CC[C@H](NC(=O)CCCCCCCCCCCCCCCCCCC(=O)O)C(=O)O)C(=O)N[C@@H](CC(N)=O)C(=O)N[C@@H]([C@@H](C)O)C(=O)N[C@@H](C)C(=O)N[C@@H]([C@@H](C)O)C(=O)N1)[C@@H](C)O)C(=O)N1CCC[C@H]1C(=O)N[C@@H](CO)C(=O)N[C@@H](CO)C(=O)N[C@H](C(=O)N[C@@H](CC(N)=O)C(=O)N[C@H](C(=O)NCC(=O)N[C@@H](CO)C(=O)N[C@@H](CC(N)=O)C(=O)N[C@H](C(=O)N1CCC[C@H]1C(N)=O)[C@@H](C)O)C(C)C)[C@@H](C)O
notes: Derivative of human amylin; also called compound 10
B7: N^α1-[(4S)-4-carboxy-4-(19-carboxynonadecanoylamino)butanoyl]-[Glu14,Arg17,Pro21,Pro27,Pro37]-h-amylin (peptide)
peptide: {C20 diacid-γGlu}-KCNTATCATQRLAEFLRHSSPNFGAIPSSTNVGSNTP-NH2
modifications: disulfide 2-7
notes: Derivative of human amylin; also called compound 8
B8: N^α1-[(4S)-4-carboxy-4-(19-carboxynonadecanoylamino)butanoyl]-[Glu14,Arg17,Pro21,Pro27,Asp35,Pro37]-h-amylin (peptide)
peptide: {C20 diacid-γGlu}-KCNTATCATQRLAEFLRHSSPNFGAIPSSTNVGSDTP-NH2
modifications: disulfide 2-7
SMILES: CC[C@H](C)[C@H](NC(=O)[C@H](C)NC(=O)CNC(=O)[C@H](Cc1ccccc1)NC(=O)[C@H](CC(N)=O)NC(=O)[C@@H]1CCCN1C(=O)[C@H](CO)NC(=O)[C@H](CO)NC(=O)[C@H](Cc1c[nH]cn1)NC(=O)[C@H](CCCNC(=N)N)NC(=O)[C@H](CC(C)C)NC(=O)[C@H](Cc1ccccc1)NC(=O)[C@H](CCC(=O)O)NC(=O)[C@H](C)NC(=O)[C@H](CC(C)C)NC(=O)[C@H](CCCNC(=N)N)NC(=O)[C@H](CCC(N)=O)NC(=O)[C@@H](NC(=O)[C@H](C)NC(=O)[C@@H]1CSSC[C@H](NC(=O)[C@H](CCCCN)NC(=O)CC[C@H](NC(=O)CCCCCCCCCCCCCCCCCCC(=O)O)C(=O)O)C(=O)N[C@@H](CC(N)=O)C(=O)N[C@@H]([C@@H](C)O)C(=O)N[C@@H](C)C(=O)N[C@@H]([C@@H](C)O)C(=O)N1)[C@@H](C)O)C(=O)N1CCC[C@H]1C(=O)N[C@@H](CO)C(=O)N[C@@H](CO)C(=O)N[C@H](C(=O)N[C@@H](CC(N)=O)C(=O)N[C@H](C(=O)NCC(=O)N[C@@H](CO)C(=O)N[C@@H](CC(=O)O)C(=O)N[C@H](C(=O)N1CCC[C@H]1C(N)=O)[C@@H](C)O)C(C)C)[C@@H](C)O
notes: Derivative of human amylin; also called compound 11

target: T1, human calcitonin receptor; experiment: cell-based or functional assay

Question: With B1 as the binder, how does the “hCTR funct. EC50” value read?
Answer: 10.1 nM

Question: Which “hCTR funct. EC50” value does the source give for B2 here?
Answer: 1.97 nM

target: T2, human calcitonin receptor; experiment: ratio IC50 human calcitonin receptor / IC50 human amylin receptor (Assays VII and V)
Procedure: The resulting pellet was resuspended, homogenized and centrifuged (20.000 rpm, 15 min) in a buffer containing 20 mM Na-HEPES and 0.1 mM EDTA (pH 7.4, buffer 2). The resulting pellet was resuspended in buffer 2 and protein concentration was measured (BCA protein Assay, Pierce). The homogenate was kept cold during the whole procedure. The membranes were kept at −80° C. until use. The assay was performed in a 384 well Optiplate (PerkinElmer) in a total volume of 40 ul. Membranes were mixed with SPA beads. Final concentration of membranes 35 ng/μL final and SPA beads was 0.05 mg/well. Test-compounds were dissolved in DMSO and further diluted in assay buffer (50 mM Hepes, pH 7.4, 1 mM CaCl2, 5 mM MgCl₂, 0.1% OA and 0.02% Tween20). […] The final mixture was incubated with shaking at 400 rpm for 120 min at 25° C. prior to centrifugation (1500 rpm, 10 min). Samples were analyzed on TopCounter™ (Packard). The IC₅₀ was calculated using (one site binding competition analysis) GraphPad Prism5 as a measure of receptor affinity.
Membranes were prepared in the following way; the cells were rinsed with PBS and incubated with Versene for approximately 5 min before harvesting. The cells were flushed with PBS and the cell-suspension was centrifuged for 5 min at 1000 rpm. Cells were homogenized (Ultrathurrax) in a buffer containing 20 mM Na-HEPES and 10 mM EDTA (pH 7.4) and centrifuged at 20.000 rpm for 15 min. The resulting pellet was resuspended, homogenized and centrifuged (20.000 rpm, 15 min) in a buffer containing 20 mM Na-HEPES and 0.1 mM EDTA (pH 7.4, buffer 2). The resulting pellet was resuspended in buffer 2 and protein concentration was measured (BCA protein Assay, Pierce). The homogenate was kept cold during the whole procedure. The membranes were kept at −80° C. until use. Assay was performed in a 384 well Optiplate (PerkinElmer) in a total volume of 40 ul. Membranes were mixed with SPA beads.

Question: With B3 as the binder, how does the “Ratio hCT/hAmylin binding” value read?
Answer: 8

Question: Which “Ratio hCT/hAmylin binding” value does the source give for B4 here?
Answer: 2.2

Question: With B5 as the binder, how does the “Ratio hCT/hAmylin binding” value read?
Answer: 1.2

Question: How did the “Ratio hCT/hAmylin binding” value turn out when B6 was run?
Answer: 1.2

Question: Which “Ratio hCT/hAmylin binding” value does the source give for B7 here?
Answer: 0.5

Question: B8 was tested. Which “Ratio hCT/hAmylin binding” value did it give?
Answer: 1
